The nature of this data set: circular dichroism at 25-90° C. To be noted: 0.01M phosphate buffer pH 7.2. The data set is classed as physicochemical. (In general: CD spectra are sensitive to the conformation of chiral molecules.)

Experimental findings from patent US5827666A, “Synthetic multiple tandem repeat mucin and mucin-like peptides, and uses thereof” (priority 1994, dated 1998) are described below.

Turning to “TITPPQAMGPNLVLPDQKPPSRQSQTGSKVATQRPQTNESAPRSVAPTTVGPKRIGTGDR (TITPPQAMGPNLVLPDQKPPSRQSQTGSKVATQRPQTNESAPRSVAPTTVGPKRIGTGDR) [PRN60, 60 amino acid proline-rich domain of feline leukemia virus gp-70]”, the “decrease of CD intensity at 198 nm at 90° C. as compared to 25° C.” value is reported as 29%.
